Results reported in PMC9157081.

B1: Probe4 (dsDNA)
DNA 1: AGTCTTTGTTCTTACATGAGAAACACATGTATTTTTTTTATAGACATTAT
DNA 2: ATAATGTCTATAAAAAAAATACATGTGTTTCTCATGTAAGAACAAAGACT
B2: GsWRKY20 Probe5 (dsDNA)
DNA 1: TTTTTAATTTGTTAACTCGTTGACTCAGTGGTAAACTCGAAAGTC
DNA 2: GACTTTCGAGTTTACCACTGAGTCAACGAGTTAACAAATTAAAAA
B3: GmMDE06 Probe2 (dsDNA)
DNA 1: GAATCAAGGGGTGAGACTCACGGTCATGACTCATGTAAATTCGTCTCCCA
DNA 2: TGGGAGACGAATTTACATGAGTCATGACCGTGAGTCTCACCCCTTGATTC
B4: Probe3 (dsDNA)
DNA 1: AGTTGATCAGCCCGAAATACTGCATGCACCTCACAAATTGACAAGTGCTT
DNA 2: AAGCACTTGTCAATTTGTGAGGTGCATGCAGTATTTCGGGCTGATCAACT
B5: GmMDE06 Probe1 (dsDNA)
DNA 1: TAAAGTATAAGTTTACTAATGGAGTCCATGAGTTAAATTTATAAAACTCT
DNA 2: AGAGTTTTATAAATTTAACTCATGGACTCCATTAGTAAACTTATACTTTA

molecular target: T1, His-E1 (Glycine max, UniProt I2FKG6 1-174); assay: EMSA
T1 sequence: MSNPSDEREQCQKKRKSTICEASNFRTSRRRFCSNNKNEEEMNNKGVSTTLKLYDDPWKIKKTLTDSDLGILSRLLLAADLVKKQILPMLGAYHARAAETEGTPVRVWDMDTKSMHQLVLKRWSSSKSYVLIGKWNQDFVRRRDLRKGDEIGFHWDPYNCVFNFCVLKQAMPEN

Binding result, binds:
B1
B2
B3
B4
B5
